Like-named read-outs stand apart in the source and are kept apart here.
Env (LAI): N197S/T
other (N-glycosylation at N197): no change

Env (BG505.T332N): N197S and N197T
other (N-glycosylation at N195): decreases

Env (LAI): D113N
other (N-glycosylation at N113): no change
